Laboratory results published in patent US20180043012A1 (CSL BEHRING RECOMBINANT FACILITY, published 2018).

How the values were obtained:
[1] = target: T1, purified monomeric human VWF (von Willebrand factor) (human, UniProt P04275 764-2813, limits assumed); assay: SPR, MGL1 immobilized on CM3 chip, fit of the dissociation phase alone
T1 construct: Analyte in the mobile phase in all SPR experiments; Background text says mature plasma VWF is the 2050-residue polypeptide; also called VWF monomers; monomeric VWF

[2] = target: T1, purified monomeric human VWF (von …); assay: SPR, CLEC10A immobilized on CM3 chip, fit of the dissociation phase alone
Description: Interaction analysis cycles consisted of a 5 min sample injection phase. In this association phase, VWF bound to CLEC10A immobilized on the surface, and increased the surface mass. This phase was followed by a dissociation phase of 17 min in running buffer. In the dissociation phase, the sample was replaced by running buffer and the dissociated VWF was removed from the surface, resulting in a decreased surface mass. All samples were tested as repeat determination. […] Although kinetic data were analyzed using Biacore T200 Evaluation Software Version 1.0 (GE Healthcare Biosciences, Uppsala, Sweden), the data set was only used for information purpose.
SPR was predominantly used as mass detector. An interaction of VWF with CLEC10A was detected by an increase in accumulating mass and specific binding was identified by subtracting the binding response recorded from the control surface, followed by subtracting an average of the buffer blank injections. A time point was positioned 20 seconds after the end of sample injection and was evaluated as representative for a stable protein-ligand interaction, which was of interest. […] Furthermore, testing was performed at least in duplicate and the response was calculated relative to the baseline in each case. […] Moreover, dissociation rate constants (off-rate) were calculated by fitting the dissociation phase alone. […]

B1: mouse MGL1 (CLEC10A orthologous mouse receptor protein) (receptor, UniProt P49300 57-304, looked up)
chain: QNSQLRRDLGTLRATLDNTTSKIKAEFQSLDSRADSFEKGISSLKVDVEDHRQELQAGRDLSQKVTSLESTVEKREQALKTDLSDLTDHVQQLRKDLKALTCQLANLKNNGSEVACCPLHWTEHEGSCYWFSESEKSWPEADKYCRLENSHLVVVNSLEEQNFLQNRLANVVSWIGLTDQNGPWRWVDGTDFEKGFKNWAPLQPDNWFGHGLGGGEDCAHITTGGPWNDDVCQRTFRWICEMKLAKES
koff [1]: 0.000406 s⁻¹

B2: recombinant human CLEC10A, extracellular domain (R&D Systems) (receptor, UniProt Q8IUN9 61-316, looked up)
chain: QNSKFQRDLVTLRTDFSNFTSNTVAEIQALTSQGSSLEETIASLKAEVEGFKQERQAGVSELQEHTTQKAHLGHCPHCPSVCVPVHSEMLLRVQQLVQDLKKLTCQVATLNNNASTEGTCCPVNWVEHQDSCYWFSHSGMSWAEAEKYCQLKNAHLVVINSREEQNFVQKYLGSAYTWMGLSDPEGAWKWVDGTDYATGFQNWKPGQPDDWQGHGLGGGEDCAHFHPDGRWNDDVCQRPYHWVCEAGLGQTSQESH
notes: extracellular domain; also called macrophage Gal-type lectin; CD301
koff [2]: 0.00051 s⁻¹
